Reference: paper PMC12226364

Target: GST-EPAC1 (purified recombinant)

shift of the AC50 of cAMP for EPAC1 GEF activity by RanBP2 ZFD (cAMP titration); maximal GEF activity also reduced: 10 fold
Substance: RanBP2 zinc finger domain (ZFD), 1171-1809 aa (from UniProt P49792 1171-1809) (domain or fragment)
